The values that follow are results of earlier work, collected in PMC7214499.

The data set has as its target IFNAR2 ECD (Homo sapiens) (UniProt P48551).
Chain of UniProt P48551 (P48551 27-243): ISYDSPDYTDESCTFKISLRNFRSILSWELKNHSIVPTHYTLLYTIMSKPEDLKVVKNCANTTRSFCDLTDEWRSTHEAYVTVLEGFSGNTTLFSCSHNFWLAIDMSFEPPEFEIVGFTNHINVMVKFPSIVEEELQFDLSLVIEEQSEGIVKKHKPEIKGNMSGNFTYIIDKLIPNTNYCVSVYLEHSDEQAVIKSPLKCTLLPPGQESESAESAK

Broadly, the Kd is the free concentration of one partner at which half of the binding sites on the other are occupied at equilibrium, for simple one-to-one binding. As to IFNα2 (from UniProt P01563), the Kd was 10 nM.
